Reference: patent US7456007B1, “β-secretase enzyme compositions and methods” (Elan Pharmaceuticals, Inc., priority 1998, dated 2008)
[ ]: non-standard residue; d: D form. Sta = CC(C)C[C@H](N)[C@@H](O)CC(=O)O

Molecular target: β-secretase (Homo sapiens, UniProt P56817)
Test: β-secretase inhibition, assay not specified
Type: biochemical

Chain of β-secretase (P56817 46-501): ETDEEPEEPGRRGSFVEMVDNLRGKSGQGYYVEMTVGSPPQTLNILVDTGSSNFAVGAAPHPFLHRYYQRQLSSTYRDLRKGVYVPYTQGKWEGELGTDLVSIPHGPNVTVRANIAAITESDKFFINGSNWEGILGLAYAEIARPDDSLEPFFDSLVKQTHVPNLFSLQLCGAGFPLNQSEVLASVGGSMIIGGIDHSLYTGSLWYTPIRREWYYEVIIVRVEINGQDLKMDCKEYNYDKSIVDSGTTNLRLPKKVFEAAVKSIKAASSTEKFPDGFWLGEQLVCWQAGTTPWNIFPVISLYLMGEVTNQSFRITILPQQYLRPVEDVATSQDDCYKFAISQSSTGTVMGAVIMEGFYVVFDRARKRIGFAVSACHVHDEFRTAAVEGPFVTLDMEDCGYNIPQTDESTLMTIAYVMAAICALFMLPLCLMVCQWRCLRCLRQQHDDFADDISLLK

inhibitor of the enzyme (in words): reasonably potent inhibitor
Substance: NH2-KTEEISEVN[sta]VAEF-COOH (H-KTEEISEVN[Sta]VAEF-OH) [P10-P4′staD→V]
